Reference: paper PMC10786891, “Massively parallel profiling of RNA-targeting CRISPR-Cas13d”

Target: T1, EsCas13d, nuclease-dead (Eubacterium siraeum, UniProt B0MS50, R295A;H300A;R849A;H854A)
T1 sequence: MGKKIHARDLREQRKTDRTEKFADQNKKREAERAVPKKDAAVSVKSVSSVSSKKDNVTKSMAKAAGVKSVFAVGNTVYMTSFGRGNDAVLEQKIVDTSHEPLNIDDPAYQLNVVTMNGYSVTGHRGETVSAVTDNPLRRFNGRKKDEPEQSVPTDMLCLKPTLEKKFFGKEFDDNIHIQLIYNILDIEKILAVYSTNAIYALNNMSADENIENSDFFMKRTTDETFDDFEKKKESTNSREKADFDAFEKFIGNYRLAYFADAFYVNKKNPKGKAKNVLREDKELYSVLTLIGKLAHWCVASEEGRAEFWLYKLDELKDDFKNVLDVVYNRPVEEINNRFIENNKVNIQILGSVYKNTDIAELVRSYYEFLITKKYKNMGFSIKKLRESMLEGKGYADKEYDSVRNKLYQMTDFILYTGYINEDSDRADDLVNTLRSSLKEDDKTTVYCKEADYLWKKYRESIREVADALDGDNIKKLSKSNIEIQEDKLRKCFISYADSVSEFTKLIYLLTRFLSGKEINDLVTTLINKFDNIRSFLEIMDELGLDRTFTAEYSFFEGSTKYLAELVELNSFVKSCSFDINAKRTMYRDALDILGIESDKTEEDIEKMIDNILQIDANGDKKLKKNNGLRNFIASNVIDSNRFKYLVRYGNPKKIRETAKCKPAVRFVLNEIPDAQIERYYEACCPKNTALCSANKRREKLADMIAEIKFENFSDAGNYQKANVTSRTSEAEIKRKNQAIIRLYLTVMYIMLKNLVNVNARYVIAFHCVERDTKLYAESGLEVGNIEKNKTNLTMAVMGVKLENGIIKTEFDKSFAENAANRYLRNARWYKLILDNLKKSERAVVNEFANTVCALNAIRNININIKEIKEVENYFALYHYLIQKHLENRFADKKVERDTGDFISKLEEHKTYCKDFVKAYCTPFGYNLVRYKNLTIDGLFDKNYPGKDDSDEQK
Experiment: crRNA (strand 1, pre-loaded); Mg2+; 40 mM Tris-HCl pH 7.5, 150 mM NaCl, 6 mM MgCl2, 1 mM DTT, 0.1% Tween-20, 0.2 mg/ml BSA; 25 C; 10 min per concentration, then washed
Settings: tags: His6-TwinStrep-SUMO cleaved; N-terminal SNAP kept (SNAP-Surface 488); label: 3' end held by stalled T7 RNA polymerase

B1: target 2 MT 5'PFS GAU 3'PFS AUG (mixed)
RNA 1: CACCCGUGCAAAAUUGCAGGGGUCUAAAACCUUCUCCAAAUUGUUUCAUCCU
RNA 2: GGGAAUGGAUCCACAUCUACGAAUUCGAUAGGAUGAAACAAUUUGGAGAAGAUGAGAUCGGAAGAGCACACGU
Q: Which Kd does the source give for B1 here?
A: The Kd was 11.8 ± 1.1 nM.

B2: target 2 MT 5'PFS GGC 3'PFS AGU (mixed)
RNA 1: CACCCGUGCAAAAUUGCAGGGGUCUAAAACCUUCUCCAAAUUGUUUCAUCCU
RNA 2: GGGAAUGGAUCCACAUCUACGAAUUCGGCAGGAUGAAACAAUUUGGAGAAGAGUAGAUCGGAAGAGCACACGU
Q: B2 was tested. Which Kd did it give?
A: The Kd was 11.5 ± 0.8 nM.

B3: target 2 MT 5'PFS AAG 3'PFS UCC (mixed)
RNA 1: CACCCGUGCAAAAUUGCAGGGGUCUAAAACCUUCUCCAAAUUGUUUCAUCCU
RNA 2: GGGAAUGGAUCCACAUCUACGAAUUCAAGAGGAUGAAACAAUUUGGAGAAGUCCAGAUCGGAAGAGCACACGU
Q: B3 was tested. Which Kd did it give?
A: The Kd was 16.3 ± 2.5 nM.

B4: target 2 MT 5'PFS GAC 3'PFS CGG (mixed)
RNA 1: CACCCGUGCAAAAUUGCAGGGGUCUAAAACCUUCUCCAAAUUGUUUCAUCCU
RNA 2: GGGAAUGGAUCCACAUCUACGAAUUCGACAGGAUGAAACAAUUUGGAGAAGCGGAGAUCGGAAGAGCACACGU
Q: B4 was tested. Which Kd did it give?
A: Its Kd is 8.9 ± 1 nM.

B5: target 2 MT 5'PFS CAU 3'PFS CCC (mixed)
RNA 1: CACCCGUGCAAAAUUGCAGGGGUCUAAAACCUUCUCCAAAUUGUUUCAUCCU
RNA 2: GGGAAUGGAUCCACAUCUACGAAUUCCAUAGGAUGAAACAAUUUGGAGAAGCCCAGAUCGGAAGAGCACACGU
Q: How did the Kd turn out when B5 was run?
A: Its Kd is 16 ± 6 nM.

B6: target 2 MT 5'PFS AAG 3'PFS UCU (mixed)
RNA 1: CACCCGUGCAAAAUUGCAGGGGUCUAAAACCUUCUCCAAAUUGUUUCAUCCU
RNA 2: GGGAAUGGAUCCACAUCUACGAAUUCAAGAGGAUGAAACAAUUUGGAGAAGUCUAGAUCGGAAGAGCACACGU
Q: For B6, which Kd is on record?
A: Its Kd is 20 ± 6 nM.

B7: target 2 MT 5'PFS GGC 3'PFS AGG (mixed)
RNA 1: CACCCGUGCAAAAUUGCAGGGGUCUAAAACCUUCUCCAAAUUGUUUCAUCCU
RNA 2: GGGAAUGGAUCCACAUCUACGAAUUCGGCAGGAUGAAACAAUUUGGAGAAGAGGAGAUCGGAAGAGCACACGU
Q: B7 was tested. Which Kd did it give?
A: The Kd was 14.9 ± 1.8 nM.

B8: target 2 MT 5'PFS GCU 3'PFS CCG (mixed)
RNA 1: CACCCGUGCAAAAUUGCAGGGGUCUAAAACCUUCUCCAAAUUGUUUCAUCCU
RNA 2: GGGAAUGGAUCCACAUCUACGAAUUCGCUAGGAUGAAACAAUUUGGAGAAGCCGAGAUCGGAAGAGCACACGU
Q: B8 was tested. Which Kd did it give?
A: Its Kd is 17.9 ± 3.4 nM.

B9: target 2 MT 5'PFS GCU 3'PFS AAG (mixed)
RNA 1: CACCCGUGCAAAAUUGCAGGGGUCUAAAACCUUCUCCAAAUUGUUUCAUCCU
RNA 2: GGGAAUGGAUCCACAUCUACGAAUUCGCUAGGAUGAAACAAUUUGGAGAAGAAGAGAUCGGAAGAGCACACGU
Q: With B9 as the binder, how does the Kd read?
A: The Kd was 11.3 ± 2 nM.

B10: target 2 MT 5'PFS CAU 3'PFS CCG (mixed)
RNA 1: CACCCGUGCAAAAUUGCAGGGGUCUAAAACCUUCUCCAAAUUGUUUCAUCCU
RNA 2: GGGAAUGGAUCCACAUCUACGAAUUCCAUAGGAUGAAACAAUUUGGAGAAGCCGAGAUCGGAAGAGCACACGU
Q: With B10 as the binder, how does the Kd read?
A: The Kd was 4.07 ± 0.31 nM.

B11: target 2 MT 5'PFS UUU 3'PFS AAU (mixed)
RNA 1: CACCCGUGCAAAAUUGCAGGGGUCUAAAACCUUCUCCAAAUUGUUUCAUCCU
RNA 2: GGGAAUGGAUCCACAUCUACGAAUUCUUUAGGAUGAAACAAUUUGGAGAAGAAUAGAUCGGAAGAGCACACGU
Q: For B11, which Kd is on record?
A: Its Kd is 9.9 ± 1.2 nM.

B12: target 2 MT 5'PFS GCU 3'PFS AAC (mixed)
RNA 1: CACCCGUGCAAAAUUGCAGGGGUCUAAAACCUUCUCCAAAUUGUUUCAUCCU
RNA 2: GGGAAUGGAUCCACAUCUACGAAUUCGCUAGGAUGAAACAAUUUGGAGAAGAACAGAUCGGAAGAGCACACGU
Q: How did the Kd turn out when B12 was run?
A: Its Kd is 10.1 ± 1.9 nM.

B13: target 2 MT 5'PFS GGC 3'PFS CAC (mixed)
RNA 1: CACCCGUGCAAAAUUGCAGGGGUCUAAAACCUUCUCCAAAUUGUUUCAUCCU
RNA 2: GGGAAUGGAUCCACAUCUACGAAUUCGGCAGGAUGAAACAAUUUGGAGAAGCACAGAUCGGAAGAGCACACGU
Q: How did the Kd turn out when B13 was run?
A: The Kd was 15.8 ± 3.1 nM.

B14: target 2 MT 5'PFS UCG 3'PFS CUA (mixed)
RNA 1: CACCCGUGCAAAAUUGCAGGGGUCUAAAACCUUCUCCAAAUUGUUUCAUCCU
RNA 2: GGGAAUGGAUCCACAUCUACGAAUUCUCGAGGAUGAAACAAUUUGGAGAAGCUAAGAUCGGAAGAGCACACGU
Q: Which Kd does the source give for B14 here?
A: Its Kd is 32 ± 10 nM.

B15: target 2 MT 5'PFS UUU 3'PFS AAG (mixed)
RNA 1: CACCCGUGCAAAAUUGCAGGGGUCUAAAACCUUCUCCAAAUUGUUUCAUCCU
RNA 2: GGGAAUGGAUCCACAUCUACGAAUUCUUUAGGAUGAAACAAUUUGGAGAAGAAGAGAUCGGAAGAGCACACGU
Q: With B15 as the binder, how does the Kd read?
A: The Kd was 7.1 ± 0.9 nM.

B16: target 2 MT 5'PFS GGC 3'PFS AGC (mixed)
RNA 1: CACCCGUGCAAAAUUGCAGGGGUCUAAAACCUUCUCCAAAUUGUUUCAUCCU
RNA 2: GGGAAUGGAUCCACAUCUACGAAUUCGGCAGGAUGAAACAAUUUGGAGAAGAGCAGAUCGGAAGAGCACACGU
Q: How did the Kd turn out when B16 was run?
A: Its Kd is 12.1 ± 1.6 nM.

B17: target 2 MT 5'PFS UUU 3'PFS AAC (mixed)
RNA 1: CACCCGUGCAAAAUUGCAGGGGUCUAAAACCUUCUCCAAAUUGUUUCAUCCU
RNA 2: GGGAAUGGAUCCACAUCUACGAAUUCUUUAGGAUGAAACAAUUUGGAGAAGAACAGAUCGGAAGAGCACACGU
Q: How did the Kd turn out when B17 was run?
A: The Kd was 7.3 ± 0.8 nM.

B18: target 2 MT 5'PFS GAU 3'PFS AUA (mixed)
RNA 1: CACCCGUGCAAAAUUGCAGGGGUCUAAAACCUUCUCCAAAUUGUUUCAUCCU
RNA 2: GGGAAUGGAUCCACAUCUACGAAUUCGAUAGGAUGAAACAAUUUGGAGAAGAUAAGAUCGGAAGAGCACACGU
Q: With B18 as the binder, how does the Kd read?
A: The Kd was 14 ± 6 nM.

B19: target 2 MT 5'PFS GGC 3'PFS CAA (mixed)
RNA 1: CACCCGUGCAAAAUUGCAGGGGUCUAAAACCUUCUCCAAAUUGUUUCAUCCU
RNA 2: GGGAAUGGAUCCACAUCUACGAAUUCGGCAGGAUGAAACAAUUUGGAGAAGCAAAGAUCGGAAGAGCACACGU
Q: Which Kd does the source give for B19 here?
A: The Kd was 8.9 ± 1.7 nM.

B20: target 2 MT 5'PFS GGC 3'PFS AGA (mixed)
RNA 1: CACCCGUGCAAAAUUGCAGGGGUCUAAAACCUUCUCCAAAUUGUUUCAUCCU
RNA 2: GGGAAUGGAUCCACAUCUACGAAUUCGGCAGGAUGAAACAAUUUGGAGAAGAGAAGAUCGGAAGAGCACACGU
Q: Which Kd does the source give for B20 here?
A: The Kd was 10.4 ± 2 nM.

B21: target 2 MT 5'PFS CAU 3'PFS CCA (mixed)
RNA 1: CACCCGUGCAAAAUUGCAGGGGUCUAAAACCUUCUCCAAAUUGUUUCAUCCU
RNA 2: GGGAAUGGAUCCACAUCUACGAAUUCCAUAGGAUGAAACAAUUUGGAGAAGCCAAGAUCGGAAGAGCACACGU
Q: For B21, which Kd is on record?
A: Its Kd is 11.5 ± 1.6 nM.

B22: target 2 MT 5'PFS UUU 3'PFS AAA (mixed)
RNA 1: CACCCGUGCAAAAUUGCAGGGGUCUAAAACCUUCUCCAAAUUGUUUCAUCCU
RNA 2: GGGAAUGGAUCCACAUCUACGAAUUCUUUAGGAUGAAACAAUUUGGAGAAGAAAAGAUCGGAAGAGCACACGU
Q: With B22 as the binder, how does the Kd read?
A: Its Kd is 8.9 ± 1.2 nM.

B23: target 2 MT 5'PFS GUA 3'PFS UCU (mixed)
RNA 1: CACCCGUGCAAAAUUGCAGGGGUCUAAAACCUUCUCCAAAUUGUUUCAUCCU
RNA 2: GGGAAUGGAUCCACAUCUACGAAUUCGUAAGGAUGAAACAAUUUGGAGAAGUCUAGAUCGGAAGAGCACACGU
Q: Which Kd does the source give for B23 here?
A: The Kd was 18.6 ± 2.7 nM.

B24: target 2 MT 5'PFS GCU 3'PFS AAA (mixed)
RNA 1: CACCCGUGCAAAAUUGCAGGGGUCUAAAACCUUCUCCAAAUUGUUUCAUCCU
RNA 2: GGGAAUGGAUCCACAUCUACGAAUUCGCUAGGAUGAAACAAUUUGGAGAAGAAAAGAUCGGAAGAGCACACGU
Q: Which Kd does the source give for B24 here?
A: Its Kd is 5.9 ± 1 nM.

B25: target 2 MT 5'PFS GCU 3'PFS AAU (mixed)
RNA 1: CACCCGUGCAAAAUUGCAGGGGUCUAAAACCUUCUCCAAAUUGUUUCAUCCU
RNA 2: GGGAAUGGAUCCACAUCUACGAAUUCGCUAGGAUGAAACAAUUUGGAGAAGAAUAGAUCGGAAGAGCACACGU
Q: With B25 as the binder, how does the Kd read?
A: Its Kd is 12 ± 4 nM.

B26: target 2 MT 5'PFS GAU 3'PFS AUC (mixed)
RNA 1: CACCCGUGCAAAAUUGCAGGGGUCUAAAACCUUCUCCAAAUUGUUUCAUCCU
RNA 2: GGGAAUGGAUCCACAUCUACGAAUUCGAUAGGAUGAAACAAUUUGGAGAAGAUCAGAUCGGAAGAGCACACGU
Q: With B26 as the binder, how does the Kd read?
A: The Kd was 10.5 ± 1.8 nM.

B27: target 1 C6A,A9U (mixed)
RNA 1: CACCCGUGCAAAAAUGCAGGGGUCUAAAACUGAGCGGAUAACCUCUCUAUGG
RNA 2: GGGAAUGGAUCCACAUCUACGAAUUCGUACCAUAGAGAGGUUUUCAGCUCACCGAGAUCGGAAGAGCACACGU
Q: Which Kd does the source give for B27 here?
A: Its Kd is 7.38 ± 0.22 nM.

B28: target 1 C2A,A9U (mixed)
RNA 1: CACCCGUGCAAAAAUGCAGGGGUCUAAAACUGAGCGGAUAACCUCUCUAUGG
RNA 2: GGGAAUGGAUCCACAUCUACGAAUUCGUACCAUAGAGAGGUUUUCCGCUAACCGAGAUCGGAAGAGCACACGU
Q: How did the Kd turn out when B28 was run?
A: Its Kd is 8.3 ± 0.4 nM.
